Columns and labels:
[1] = In vivo pharmacokinetic analysis (MSD ECL total antibody assay); conditions: BALB/c mice, 5 mg/kg via the tail vein; for MRT / Vss / t½: total antibody; for in vivo half live: 5 mg/kg
Text: This Example used Meso Scale Discovery (MSD) Electrochemiluminescent (ECL) method to conduct the PK analysis of the anti-NTSR1 antibodies αNTSR1 (AKT2), αNTSR1 (AKT2 Hu/Hu) and αNTSR1 (AKT2 Hu/Hd) in BALB/c mice samples. The MSD assay can measure both conjugated and unconjugated antibodies. As illustrated in this example, for total antibody assay (including conjugated and unconjugated antibodies), the plate is coated with goat anti-human IgG, which can capture all humanized antibodies (conjugated and unconjugated).
The mice were administered at a dose level of 5 mg/kg via the tail vein. Blood samples were then obtained at different time points for determining the concentrations of αNTSR1 (AKT2), αNTSR1 (AKT2 Hu/Hu) and αNTSR1 (AKT2 Hu/Hd) in mice by MESO QuickPlex SQ 120 method. The PK parameters of αNTSR1 (AKT2), αNTSR1 (AKT2 Hu/Hu) and αNTSR1 (AKT2 Hu/Hd) were analyzed by noncompartmental analysis using PHOENIX™ for WinNonlin Program, version 6.3.

[2] = test system: FaDu human head and neck cancer xenograft; assay: Xenograft model of anti-NTSR1 ADCs (head and neck cancer); type: in vivo, male NOD SCID mice; conditions: for TGI % (1-T/C) Day 0 / TGI % (1-T/C) Day 3 / TGI % (1-T/C) Day 5 / TGI % (1-T/C) Day 7 / TGI % (1-T/C) Day 10 / TGI % (1-T/C) Day 12 / TGI % (1-T/C) Day 14 / TGI % (1-T/C) Day 17: 5 mpk, IV, BIW × 3; for FaDu tumor growth: 5 mg/kg, Day 10 to Day 17
Protocol: The aim of this study was to evaluate the in vivo anti-tumor efficacy of αNTSR1 (AKT2) 4seco-DUBA, αNTSR1 (AKT2 Hu/Hu) 4seco-DUBA, and αNTSR1 (AKT2 Hu/Hd) 4seco-DUBA in FaDu human head and neck cancer xenograft model in male NOD SCID mice.
Formulations respectively comprising test article αNTSR1 (AKT2) 4seco-DUBA, test article αNTSR1 (AKT2 Hu/Hu) 4seco-DUBA, test article αNTSR1 (AKT2 Hu/Hd) 4seco-DUBA, and Hu IgG were formulated by diluting the stock with a 25 mM sodium citrate buffer (pH 6.5). […]
The FaDu cells were maintained in vitro as a monolayer culture in RPMI-1640 medium supplemented with 10% fetal bovine serum at 37° C. in an atmosphere of 5% CO2 in air. The tumor cells were routinely sub-cultured twice weekly by trypsin-EDTA treatment. The cells growing in an exponential growth phase were harvested and counted for tumor inoculation.
Male NOD SCID mice at age of 6-7 weeks were quarantined for one week. Five mice were housed in each cage. All animals were hosted in the animal facility with a 12-h light/12-h dark cycle at 19-25° C. Animals had free access to rodent pellet foods and water ad libitum.
FaDu cells were subcutaneously (SC) implanted (4×10^6 cells in 1:1 PBS/matrigel mixture at 0.1 mL per mouse) into the right flank of male NOD SCID mice. When the average tumor volume had reached about 200 mm^3, the mice were randomly divided into 7 groups (N=6 per group). Each of Hu IgG, αNTSR1 (AKT2) 4seco-DUBA (5 mg/kg), αNTSR1 (AKT2 Hu/Hu) 4seco-DUBA (5 mg/kg), and αNTSR1 (AKT2 Hu/Hd) 4seco-DUBA (5 mg/kg) was intravenously administered twice weekly for 3 weeks.
The tumor volumes, body weights, mortality, and signs of overt toxicity were monitored and recorded three times weekly for 28 days. Tumor volumes (mm^3) were measured three times per week using calipers and calculated according to the formula: Tumor Volume=(w^2×l)/2, where w=width and l=length in diameter (mm) of the tumor. The percentages of tumor growth inhibition (TGI) were calculated using the following formula: % TGI=[1−(T/C)]×100%, where T and C represent the mean tumor volumes of the treatment group and the control group, respectively. A TGI (%) value≥58% was considered as indicating significant anti-tumor activity. Animals were weighed three times weekly until the completion of the study.

NTSR1 protein = NTSR1 protein (Homo sapiens, UniProt P30989); assay: SPR (BIACORE T200) multi-cycle kinetic assay; conditions: 25° C., one-to-one Langmuir binding model
Sequence of NTSR1 protein (P30989 whole entry): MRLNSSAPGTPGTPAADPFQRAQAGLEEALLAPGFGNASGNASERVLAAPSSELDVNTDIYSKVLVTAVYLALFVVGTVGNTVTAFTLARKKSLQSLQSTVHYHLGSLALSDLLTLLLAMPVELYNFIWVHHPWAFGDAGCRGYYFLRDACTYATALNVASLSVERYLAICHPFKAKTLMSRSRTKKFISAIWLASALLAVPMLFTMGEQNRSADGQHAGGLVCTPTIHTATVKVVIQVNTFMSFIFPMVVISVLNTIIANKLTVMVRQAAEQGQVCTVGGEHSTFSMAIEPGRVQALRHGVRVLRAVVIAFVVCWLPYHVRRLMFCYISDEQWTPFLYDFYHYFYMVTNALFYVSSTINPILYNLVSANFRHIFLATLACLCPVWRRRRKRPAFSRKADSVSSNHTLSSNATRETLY
Protocol: To know the binding kinetics differences among individual anti-NTSR1 antibodies, surface plasmon resonance (SPR) measurement with BIACORE™ T200 (CYTIVA® Inc.) was used as previously described (Karlsson & Falt, (1997) J. Immunol Methods 200:121-133). Carboxymethylated dextran biosensor chips (CM5, CYTIVA® Inc.) were activated with N-ethyl-N′-(3-dimethylaminopropyl)-carbodiimide hydrochloride (EDC) and N-hydroxysuccinimide (NHS) according to the supplier's instructions. NTSR1 protein was diluted with 10 mM sodium acetate, pH 4.0, into 5 μg/ml before injection at a flow rate of 10 μL/minute to achieve approximately 1500 response units (RU) of coupled protein followed by the injection of 1 M ethanolamine to block unreacted groups. For kinetics measurements, two-fold serial dilutions of anti-NTSR1 mAb (0.3125 nM to 40 nM) were injected in HBS-EP+BIACORET™ running buffer provided by the manufacturer (CYTIVA® Inc.) at 25° C. at a flow rate of 30 μL/min, and binding responses on the NTSR1 protein were corrected by subtraction of responses on a blank flow cell. Association rates (kon or Ka) and dissociation rates (koff or Kd) were calculated using a simple one-to-one Langmuir binding model with separate fittings of kon and koff. (CYTIVA® BIACORET™ Insight Evaluation Software).

FaDu cells = assay: In vitro cytotoxicity study (CELLTITER-GLO); type: cell-based, human; conditions: 72 hours treatment, cell viability, read-out: Relative IC50
Protocol: Human head and neck cancer cell line FaDu was respectively grown in RPMI-1640 medium (ATCC® modification) supplemented with 10% fetal bovine serum. The FaDu cell lines were maintained in an atmosphere of 5% CO2 in a humidified 37° C. incubator. The day before treatment, cells were collected and seeded into 96-well plates (4,000 cells per well). Each treatment was performed in eight triplicate data points. After the treatment of 72 hours, cell viability was assessed by CELLTITER-GLO® kit (PROMEGA®) according to the manufacturer's instruction. At the end of the incubation, luminescence was measured using a SpectraMax i3x Multi Mode Detection Platform (MOLECULAR DEVICES®). Compound cytotoxicity was evaluated in comparison to cells treated with 0.05% PBS (ADCs) or 0.05% DMSO (toxic payload). IC50 values were calculated by fitting viability data with a four-parameter logistic equation using GRAPHPAD® prism 5.0 software.

Molecule	MRT [1] [h]	Vss [1] [L/kg]	t½ [1] [h]	in vivo half live ([1]; listed as αNTSR1 (AKT2 Hu/Hu)) [h]	TGI % (1-T/C) Day 0 [2] [%]	TGI % (1-T/C) Day 3 [2] [%]	TGI % (1-T/C) Day 5 [2] [%]	TGI % (1-T/C) Day 7 [2] [%]	TGI % (1-T/C) Day 10 [2] [%]	TGI % (1-T/C) Day 12 [2] [%]	TGI % (1-T/C) Day 14 [2] [%]	TGI % (1-T/C) Day 17 [2] [%]	Ka (kon, association rate) (NTSR1 protein) [M⁻¹ s⁻¹]	Kd (koff, dissociation rate) (NTSR1 protein) [s⁻¹]	IC50 (FaDu cells) [nM]	FaDu tumor growth [2]	in vivo half live ([1]; listed as αNTSR1 (AKT2 Hu/Hd)) [h]
AKT2 HuHu: humanized anti-NTSR1 antibody, AKT2 HuVH (SEQ ID NO: 16) and AKT2 HuVL (SEQ ID NO: 17) (antibody, V domains shown) VH: QVQLVQSGAEVKKPGASVKVSCKASGYAFTSSWIHWVRQAPGQGLEWMGQIRPNSGNTYYNEKFKVRVTMTRDTSTSTVYMELSSLRSEDTAVYYCARYHYGFDYWGQGTLVTVSS VL: DIVMTQTPLSLSVTPGQPASISCRSSQSIVHSNGNTYLEWYLQKPGQSPQLLIYKVSNRFSGVPDRFSGSGSGTDFTLKISRVEAEDVGVYYCFQGAHLPWTFGQGTKVEIK	252 ± 116	0.120 ± 0.026	182 ± 90.8	182 ± 90.8	0.0	17.7	33.4	37.3	13.4	6.7	25.6	26.9	787700	0.0008084			
αNTSR1 (AKT2 Hu/Hd) 4seco-DUBA: antibody-drug conjugate of humanized antibody AKT2 HuHd with seco-DUBA payload (conjugate) heavy chain: QVQLVQSGAEVKKPGASVKVSCKASGYAFTSSWIHWVRQAPGQGLEWMGQIRPNSGNTYYNEKFKVRVTMTRDTSTSTVYMELSSLRSEDTAVYYCARYHYGFDYWGQGTLVTVSS light chain: DIQMTQSPSSLSASVGDRVTITCRSSQSIVHSNGNTYLEWYQQKPGKAPKLLIYKVSNRFSGVPSRFSGSGSGTDFTLTISSLQPEDFATYYCFQGAHLPWTFGQGTKVEIK					0.0	6.6	29.8	56.1	60.9	62.7	65.2	76.6			55	significantly reduced FaDu tumor growth	
AKT2 HuHd: humanized anti-NTSR1 antibody, AKT2 HuVH (SEQ ID NO: 16) and AKT2 HdVL (SEQ ID NO: 15) (antibody, V domains shown) VH: QVQLVQSGAEVKKPGASVKVSCKASGYAFTSSWIHWVRQAPGQGLEWMGQIRPNSGNTYYNEKFKVRVTMTRDTSTSTVYMELSSLRSEDTAVYYCARYHYGFDYWGQGTLVTVSS VL: DIQMTQSPSSLSASVGDRVTITCRSSQSIVHSNGNTYLEWYQQKPGKAPKLLIYKVSNRFSGVPSRFSGSGSGTDFTLTISSLQPEDFATYYCFQGAHLPWTFGQGTKVEIK	209 ± 62.5	0.135 ± 0.020	156 ± 48.6		0.0		13.1	28.4	36.2	40.9	37.8	32.5	461400	0.0006575			156 ± 48.6
αNTSR1 (AKT2 Hu/Hu) 4seco-DUBA: antibody-drug conjugate of humanized antibody AKT2 HuHu with seco-DUBA payload (conjugate) heavy chain: QVQLVQSGAEVKKPGASVKVSCKASGYAFTSSWIHWVRQAPGQGLEWMGQIRPNSGNTYYNEKFKVRVTMTRDTSTSTVYMELSSLRSEDTAVYYCARYHYGFDYWGQGTLVTVSS light chain: DIVMTQTPLSLSVTPGQPASISCRSSQSIVHSNGNTYLEWYLQKPGQSPQLLIYKVSNRFSGVPDRFSGSGSGTDFTLKISRVEAEDVGVYYCFQGAHLPWTFGQGTKVEIK					0.0		17.5	47.2	65.4	72.2	83.8	90.8			12.5	significantly reduced FaDu tumor growth	
αNTSR1 (AKT2) 4seco-DUBA: antibody-drug conjugate of chimera antibody AKT2 with seco-DUBA payload (conjugate) heavy chain: QVQLQQPGSVLVRPGASVKLSCKASGYAFTSSWIHWAKQRPGQGLEWIGQIRPNSGNTYYNEKFKVKATLTVDTSSSTAYVDLSSLTSEDSAVYYCARYHYGFDYWGQGTLVTVSS light chain: DVLMTQTPLSLPVSLGDQASISCRSSQSIVHSNGNTYLEWYLQKPGQSPKLLIYKVSNRFSGVPDRFSGSGSGTDFTLKISRVEAEDLGVYYCFQGAHLPWTFGGGTKLEIK					0.0		28.5	54.4	68.5	83.8	90.5	95.3			36.9	significantly reduced FaDu tumor growth	

— patent US12091454B2, “Humanized anti-human neurotensin receptor 1 antibodies and their uses” (DEVELOPMENT CENTER FOR BIOTECHNOLOGY, priority 2022, dated 2024)
